In US8889621B2, “Inhibiting binding of FGF23 to the binary FGFR-Klotho complex for the treatment of hypophosphatemia” (New York University, priority 2009, dated 2014):

T1: binary FGFR1c-Klotho complex (UniProt O35082+P11362)
T1 construct: The ectodomain of murine Klotho (A35 to K982) was purified from culture media; FLAG (C); made in house; host or cells: E. coli (FGFR1c, FGF23); HEK293 (Klotho ectodomain)
T1 sequence (P11362 142-365): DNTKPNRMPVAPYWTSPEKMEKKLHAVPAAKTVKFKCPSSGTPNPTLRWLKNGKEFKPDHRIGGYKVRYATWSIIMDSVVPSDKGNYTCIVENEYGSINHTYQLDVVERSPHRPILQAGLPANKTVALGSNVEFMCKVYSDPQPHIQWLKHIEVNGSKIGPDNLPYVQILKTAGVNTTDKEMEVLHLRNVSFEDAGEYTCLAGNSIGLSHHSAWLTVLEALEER
T1 sequence (O35082 35-982): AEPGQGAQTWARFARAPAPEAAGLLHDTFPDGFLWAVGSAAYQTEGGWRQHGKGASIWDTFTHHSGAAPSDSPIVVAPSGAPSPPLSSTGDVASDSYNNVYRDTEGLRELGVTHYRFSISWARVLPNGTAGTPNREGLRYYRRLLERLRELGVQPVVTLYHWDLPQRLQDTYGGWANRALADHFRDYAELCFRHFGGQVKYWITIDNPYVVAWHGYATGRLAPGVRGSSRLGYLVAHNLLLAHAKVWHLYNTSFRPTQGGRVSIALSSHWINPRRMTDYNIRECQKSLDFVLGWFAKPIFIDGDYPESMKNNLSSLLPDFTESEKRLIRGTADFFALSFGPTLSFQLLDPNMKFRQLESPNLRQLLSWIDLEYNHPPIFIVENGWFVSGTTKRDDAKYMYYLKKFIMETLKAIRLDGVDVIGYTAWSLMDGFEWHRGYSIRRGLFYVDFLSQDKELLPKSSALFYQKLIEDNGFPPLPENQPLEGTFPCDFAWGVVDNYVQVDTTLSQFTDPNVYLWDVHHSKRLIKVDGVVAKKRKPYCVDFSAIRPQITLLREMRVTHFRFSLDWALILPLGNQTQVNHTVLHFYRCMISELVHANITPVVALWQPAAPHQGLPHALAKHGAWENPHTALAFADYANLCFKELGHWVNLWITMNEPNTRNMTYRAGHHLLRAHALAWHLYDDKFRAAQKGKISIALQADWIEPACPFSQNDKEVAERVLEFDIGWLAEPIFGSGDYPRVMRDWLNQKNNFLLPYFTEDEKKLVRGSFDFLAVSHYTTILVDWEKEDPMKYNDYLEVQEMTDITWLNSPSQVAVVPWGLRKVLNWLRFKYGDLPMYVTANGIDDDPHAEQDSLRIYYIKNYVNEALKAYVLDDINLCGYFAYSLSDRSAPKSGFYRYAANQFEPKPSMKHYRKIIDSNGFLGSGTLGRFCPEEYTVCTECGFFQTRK


Biological target: T1, binary FGFR1c-Klotho complex
Assay: Reverse SPR competition: FGFR1c-Klotho binding to immobilized FGF23^180-251
Parameters: species or system human FGFR1c, murine Klotho
Conditions: reverse SPR format
Procedure: A variety of interaction or binding assays can be used to determine that an agent specifically binds the binary FGFR-Klotho complex, such as the SPR interaction analysis described below. One aspect of the present invention utilizes SPR analysis of FGF23 protein/peptide binding to the binary FGFR-Klotho complex. The SPR analysis involved FGF23 protein/peptide immobilization by amine coupling on flow channels of a chip. Proteins were injected over the chip at a flow rate of 50 μl min^−1, and at the end of each protein injection (180 s), HBS-EP buffer (10 mM HEPES-NaOH, pH 7.4, 150 mM NaCl, 3 mM EDTA, 0.005% (v/v) polysorbate 20; 50 μl min^−1) was flowed over the chip to monitor dissociation for 180 s. The chip surface was then regenerated by injecting 50 μl of 2.0 M NaCl in 10 mM sodium acetate, pH 4.5. […] For each protein injection over a FGF23 protein/peptide chip, the nonspecific responses from the FHF1B control flow channel were subtracted from the responses recorded for the flow channel onto which FGF23 protein/peptide was immobilized. […] As a control, competition of FGF23 C-terminal tail peptide in solution with immobilized FGF23 C-terminal tail peptide for binding to the binary FGFR1c-Klotho complex was analyzed. […]

| inhibition of FGFR1c-Klotho binding to immobilized FGF23^180-251 | Molecule |
| --- | --- |
| inhibition | FGF23^28-251: human FGF23 (A28 to I251), bioactive full-length ligand expressed in E. coli (protein, listed as Homo sapiens) ASPLLGSSWGGLIHLYTATARNSYHLQIHKNGHVDGAPHQTIYSALMIRSEDAGFVVITGVMSRRYLCMDFRGNIFGSHYFDPENCRFQHQTLENGYDVYHSPQYHFLVSLGRAKRAFLPGMNPPPYSQFLSRRNEIPLIHFNTPIPRRHTRSAEDDSERDPLNVLKPRARMTPAPASCSQELPSAEDNSPMASDPLGVVRGGRVNTHAGGTGPEGCRPFAKFI |
| inhibition | FGF23^180-251: 72-amino acid C-terminal tail of human FGF23 (S180 to I251), expressed in E. coli (protein, listed as Homo sapiens) SAEDDSERDPLNVLKPRARMTPAPASCSQELPSAEDNSPMASDPLGVVRGGRVNTHAGGTGPEGCRPFAKFI |
